PMC12301659

What was measured:
[1] = biological target: separase [also known as separin (ESPL1)], endogenous [human (endogenous in HCT116)]; assay: proximity ligation assay (PLA); settings: HCT116 cells stably expressing GFP–Centrin2; antibodies against HA and separase; parent: 44; read off a plot
[2] = biological target: 14-3-3ε (endogenous) [human (endogenous in HCT116)]; assay: proximity ligation assay (PLA); settings: HCT116 cells stably expressing GFP–Centrin2; antibodies to the Myc epitope tag and 14-3-3ε; parent: 52; read off a plot

HA-tagged 14-3-3ε WT mutant D127A [not stated] / separase [also known as separin (ESPL1)], endogenous [human (endogenous in HCT116)] chain 1 D127A
response (puncta per cell) [1]: 63

HA-tagged 14-3-3ε WT mutant D127A; E134A [not stated] / separase [also known as separin (ESPL1)], endogenous [human (endogenous in HCT116)] chain 1 D127A, chain 1 E134A
response (puncta per cell) [1]: 19

HA-tagged 14-3-3ε WT mutant E134A [not stated] / separase [also known as separin (ESPL1)], endogenous [human (endogenous in HCT116)] chain 1 E134A
response (puncta per cell) [1]: 8

Myc-tagged separase (FL) mutant S1501A [human] / 14-3-3ε (endogenous) [human (endogenous in HCT116)] chain 1 S1501A
response (puncta per cell) [2]: 0.5

Myc-tagged separase (FL) mutant T1363A [human] / 14-3-3ε (endogenous) [human (endogenous in HCT116)] chain 1 T1363A
response (puncta per cell) [2]: 45
